In PMC8877046, “Interferon-β Activity Is Affected by S100B Protein” (International Journal of Molecular Sciences, 2013):
Each block holds one molecule with its values, some of them ahead of it.

How the values were obtained:
[1] = target: IFNAR2 ECD (Homo sapiens) (UniProt P48551); conditions: cited from earlier work
[2] = target: T1, Human interferon beta-1a (IFN-β, Rebif) (human), P01574; test: other fluorescence titration; tryptophan fluorescence of 0.5 µM IFN-β (excitation 295 nm) titrated by S100B; 25 °C; 10 mM HEPES-NaOH, 150 mM NaCl, 1 mM CaCl2, pH 7.4; one-site binding model; apparent; conditions: remark: other sources report otherwise
T1 chain: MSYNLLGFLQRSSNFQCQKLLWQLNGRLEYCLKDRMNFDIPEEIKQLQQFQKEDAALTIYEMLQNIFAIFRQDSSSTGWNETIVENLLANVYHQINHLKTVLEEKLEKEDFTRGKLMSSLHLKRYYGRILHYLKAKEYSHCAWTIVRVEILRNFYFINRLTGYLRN

[3] = target: the molecule itself; test: cross-linking; 5 µM IFN-β with 10 µM Ca2+-depleted S100B (1:2), and 10 µM apo-S100B alone; 40 mM EDAC, 10 mM sulfo-NHS, 25 °C, 1.5 h; 10 mM HEPES, 150 mM NaCl, pH 7.4, without CaCl2 and without chelator; authors say the samples could be contaminated by Ca2+
[4] = target: the molecule itself; test: cross-linking; 5 µM IFN-β alone; 40 mM EDAC, 10 mM sulfo-NHS, 25 °C, 1.5 h; 10 mM HEPES, 150 mM NaCl, pH 7.4; SDS-PAGE, silver staining; whether CaCl2 was present is not told for this lane
[5] = target: T2, Human S100B protein (human), P04271; test: SPR; S100B immobilised by amine coupling on ProteOn GLH chip (up to 9000 RU); analyte 10-80 nM IFN-β; 25 °C; 10 mM HEPES, 150 mM NaCl, 0.05% TWEEN 20, 1 mM CaCl2, pH 7.4; heterogeneous ligand model (two populations of ligand); conditions: remark: other sources report otherwise
T2 chain: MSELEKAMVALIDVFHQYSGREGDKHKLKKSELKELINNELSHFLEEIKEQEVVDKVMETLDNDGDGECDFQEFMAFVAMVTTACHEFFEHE

IFNAR2 ECD (Homo sapiens), sequence (P48551 27-243): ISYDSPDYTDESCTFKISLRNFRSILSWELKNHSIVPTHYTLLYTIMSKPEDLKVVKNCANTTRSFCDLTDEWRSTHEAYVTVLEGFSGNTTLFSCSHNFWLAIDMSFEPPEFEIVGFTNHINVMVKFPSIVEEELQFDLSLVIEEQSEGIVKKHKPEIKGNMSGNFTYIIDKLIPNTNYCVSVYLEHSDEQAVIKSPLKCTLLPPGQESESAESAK

Molecule: IFN-β (from UniProt P01574)
- Kd [1]: 0.1 nM

- Kd [2]: 21 nM
- stoichiometry N (S100B to IFN-β molar ratio) [2]: 1
B1: Human S100B protein (natural protein)
chain: T2 chain
notes: human S100B, UniProt P04271; crystal structure of Ca2+-loaded human S100B dimer PDB 5D7F chains A and B; The authors take the S100B that was amine-coupled to the SPR chip to be partly converted to the monomer; also called apo-S100B; Ca^2+-loaded S100B
- stoichiometry N [3]: 2

- Kd1 (ligand population 1 of the heterogeneous ligand model) [5]: 47 pM
- Kd2 (ligand population 2 of the heterogeneous ligand model) [5]: 87 nM
- kd1 (dissociation rate constant, ligand population 1 of the heterogeneous ligand model) [5]: 0.000149 s⁻¹
- kd2 (dissociation rate constant, ligand population 2 of the heterogeneous ligand model) [5]: 0.013 s⁻¹
- t1/2 of dissociation (fast process) [5]: 100 s
- t1/2 of dissociation (slow process) [5]: > 1000 s
B2: Human interferon beta-1a (IFN-β, Rebif) (ligand, UniProt P01574 22-187, looked up)
chain: T1 chain
notes: human interferon-β (interferon beta-1a), gene IFNB1, UniProt P01574; Drug product Rebif; also called Interferon-β; source: produced in CHO-K1 cells; bought: Merck (Rebif)
- binding result [4]: binds
